Test results as given in US20180311348A1 (LUDWIG MAXIMILIANS UNIVERSIT T M NCHEN, published 2018).

Columns and labels:
CD33 [1] = target: T1, CD33 (human, UniProt P20138 18-364); experiment: column 'KD MOLM-13': calibrated flow cytometry on MOLM-13 cells, KD as an avidity value
T1 construct: whole, on cells; Species is stated as human for the transfected lines; also called human CD33; CHO.exCD33
Procedure: (§1) CD33 equilibrium binding constants (KD, as an avidity measurement) of the licMABs and mAb were determined by calibrated flow cytometry analyses as previously described (Benedict et al., 1997; J. Immunol. Methods; 201(2); 223-231). Briefly, MOLM-13 cells were incubated with licMABs or mAb in concentrations ranging from 0.01 to 15 μg/ml and stained with a FITC antiHuman IgG Fc (clone HP6017, BioLegend) secondary antibody by flow cytometry. The instrument was calibrated with 3.0-3.4 μm Rainbow Calibration particles of 8 peaks (BioLegend), the maximum MFI value was set to 100% and all data points were normalized accordingly. The assay was performed in quadruplicates and the values were analyzed by non-linear regression using a one-site specific binding model.

CD33 [2] = target: T1, CD33; experiment: calibrated flow cytometry titration on MOLM-13 cells, KD as an avidity value
Procedure: as §1

CD33 [3] = target: T1, CD33; experiment: calibrated flow cytometry titration on MOLM-13 cells, KD as an avidity value; panel 'KD determination of Fc-engineered licMABs'
Procedure: as §1

CD47 [4] = target: T2, CD47 (human, UniProt Q08722 19-323); experiment: cell-based or functional assay
CD47 [5] = target: T2, CD47; experiment: flow cytometry titration on CHO.exCD47 cells, anti-HIS ALEXA-488 detection, n=3
CD33 [6] = target: T1, CD33; experiment: column 'KD MOLM-13': flow cytometry on MOLM-13 cells (CD33+ CD47+), KD as an avidity value
CD33 [7] = target: T1, CD33; experiment: flow cytometry titration on MOLM-13 cells (CD33+ CD47+), KD as an avidity value

T1 sequence (P20138 18-364): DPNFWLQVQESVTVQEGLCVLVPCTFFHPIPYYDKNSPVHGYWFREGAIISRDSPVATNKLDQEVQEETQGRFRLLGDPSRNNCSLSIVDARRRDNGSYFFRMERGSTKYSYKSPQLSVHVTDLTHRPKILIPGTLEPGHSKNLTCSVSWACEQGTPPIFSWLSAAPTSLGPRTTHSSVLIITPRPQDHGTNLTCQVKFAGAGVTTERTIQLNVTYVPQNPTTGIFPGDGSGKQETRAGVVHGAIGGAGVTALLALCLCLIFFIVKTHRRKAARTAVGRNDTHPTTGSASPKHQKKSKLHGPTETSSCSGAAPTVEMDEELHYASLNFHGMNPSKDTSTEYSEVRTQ

| Kd (CD33 [1]) | Kd (CD33 [2]) | Kd (CD33 [3]) | EC50 (concentration of half maximum lysis), redirected lysis of MOLM 13 cells by expanded PBMC effector cells, E:T 2:1, 4 h (CD47 [4]) | Kd (CD47 [5]) | Kd (CD33 [6]) | Kd (CD33 [7]) | Binder |
| --- | --- | --- | --- | --- | --- | --- | --- |
| 3 nM | 3 nM |  |  |  |  |  | αCD33 mAB (antibody, human IgG1, Human IgG1/kappa (pFUSE-CHIg-hG1, pFUSE2-CLIg-hk); It was obtained from SIRPα-PreSc-antiCD33 by PreScission cleavage, so residues of the cleavage site may remain at the light chain N-terminus; also called antiCD33 mAb; anti-CD33 mAB (clone hP67.6)) heavy: not shown light: DIQLTQSPSTLSASVGDRVTITCRASESLDNYGIRFLTWFQQKPGKAPKLLMYAASNQGSGVPSRFSGSGSGTEFTLTISSLQPDDFATYYCQQTKEVPWSFGQGTKVEVKVAAPSVFIFPPSDEQLKSGTASVVCLLNNFYPREAKVQWKVDNALQSGNSQESVTEQDSKDSTYSLSSTLTLSKADYEKHKVYACEVTHQGLSSPVTKSFNRGEC |
| 2 nM |  | 2 nM |  |  |  |  | Fc-engineered variant of αCD33 mAB (antibody, human IgG1, Same as m7 with the Fc-engineered IgG1 constant region (S239D, I332E); also called Fc-engineered mAB) heavy: not shown light: DIQLTQSPSTLSASVGDRVTITCRASESLDNYGIRFLTWFQQKPGKAPKLLMYAASNQGSGVPSRFSGSGSGTEFTLTISSLQPDDFATYYCQQTKEVPWSFGQGTKVEVKVAAPSVFIFPPSDEQLKSGTASVVCLLNNFYPREAKVQWKVDNALQSGNSQESVTEQDSKDSTYSLSSTLTLSKADYEKHKVYACEVTHQGLSSPVTKSFNRGEC |
|  |  |  | 0.0015 nM | 21 nM | 30 nM | 30 nM | SirpIg-SirpIg-anti-CD16-anti-CD33 liCAD (other) EEELQVIQPDKSVLVAAGETATLRCTATSLIPVGPIQWFRGAGPGRELIYNQKEGHFPRVTTVSDLTKRNNMDFSIRIGNITPADAGTYYCVKFRKGSPDDVEFKSGAGTELSVRAKPSGGGGSGGGGSGGGGSGGGGSEEELQVIQPDKSVLVAAGETATLRCTATSLIPVGPIQWFRGAGPGRELIYNQKEGHFPRVTTVSDLTKRNNMDFSIRIGNITPADAGTYYCVKFRKGSPDDVEFKSGAGTELSVRAKPSGGGGSGGGGSGGGGSGGGGSQVTLKESGPGILQPSQTLSLTCSFSGFSLRTSGMGVGWIRQPSGKGLEWLAHIWWDDDKRYNPALKSRLTISKDTSSNQVFLKIASVDTADTATYYCAQINPAWFAYWGQGTLVTVSAGGGGSGGGGSGGGGSGGGGSDTVLTQSPASLAVSLGQRATISCKASQSVDFDGDSFMNWYQQKPGQPPKLLIYTTSNLESGIPARFSASGSGTDFTLNIHPVEEEDTATYYCQQSNEDPYTFGGGTKLEIKGGGGSGGGGSGGGGSGGGGSDIQLTQSPSTLSASVGDRVTITCRASESLDNYGIRFLTWFQQKPGKAPKLLMYAASNQGSGVPSRFSGSGSGTEFTLTISSLQPDDFATYYCQQTKEVPWSFGQGTKVEVKGGGGSGGGGSGGGGSGGGGSEVQLVQSGAEVKKPGSSVKVSCKASGYTITDSNIHWVRQAPGQSLEWIGYIYPYNGGTDYNQKFKNRATLTVDNPTNTAYMELSSLRSEDTAFYYCVNGNPWLAYWGQGTLVTVSS |
